Assay results published in article PMC9749489.

Key:
[1] = test system: Putidaredoxin D38A mutant; assay: continuous-wave EPR; conditions: other: continuous-wave EPR (high-spin to low-spin conversion of the heme)
[2] = test system: Putidaredoxin W106A mutant; assay: continuous-wave EPR; conditions: other: continuous-wave EPR (high-spin to low-spin conversion of the heme)

MTSL-P450cam (P450cam labelled with MTSL at S48C and S190C)
conversion from the high-spin to low-spin state [1]: approximately 50% conversion | conversion from the high-spin to low-spin state [2]: approximately 50% conversion
